Measured values taken from a protein production outcome set (Wang et al. 2014).

Assay: label from the status in PepcDB records

Sequence | protein production
SLGEMKRAAIIIDDFGGDVKGVDDFLTGEIPVTVAVMPFLEHSTKQAEIAQAAGLEVIVHMPLEPKKGKISWLGPSGITSNLSVGEVKSRVRKAFDDIPYAVGLNNHMGSKIVENEKIMRAILEVVKEKNAFIIDSGTSPHSLIPQLAEELEVPYATRSIFLDNTHSSRKEVIKNMRKLAKKAKQGSEPIGIGHVGVRGDETYAGIRSMLDEFQAESIQLVPVSQLLPSPIEEDHNKFWQQPFQAKE | not failed
SLHEEADHRVTDHGPRPFVVNIEDETKRNRAFRRALWTGDHLQVTLMSIQVGEDIGLEIHPHLDQFLRVEEGRGLVQMGHRQDNLHFQEEVFDDYAILIPAGTWHNVRNTGNRPLKLYSIYAPPQHPHGTVHETKAIAMAAEEHHHL | not failed
SLIGFLSDRQGFEKQYHDIDLSSFGIREGISEIIASTGFEHPNAAPIGIVMKGERPFVRLFKGSHTWENVLKEKCLASNVVYDPILFVRSTFSDLVPSEFEYVDAGEFKFPVLKEAIAWVVFECINLRNTDQSLVADLVPLNAGFNERNIKELPVPNRGFNAVLEATVHATRYQLTGEEKYLELIRHYESLASKCGGDAEKKAMKLIYEALGL | not failed
SLKRKLKPKRLQLPPQDVVFEGEAAMNEYTFYRNWVESWLQHIRSYYLLFIDGDPSLSKFFEIEICAHSWKRSTFDQQVFKFGLLWECVDIARSRTVYWQCALGTGHIQEDKVSEATSPFTDDSCTNSCLSRMTGQ | failed
SLLCGPLRLSESGETWSEVWAAIPMSDPQVLHLQGGSQDGRLPRTIPLPSCKLSVPDPEERLDSGHVWKLQWAKQSWYLSASSAELQQQWLETLSTAAH | not failed
SLMDVKCETPNCPFFMSVNTQPLCHECSERRQKNQN | not failed
SLSSTELGDLFWSWLRDGLREGDIPVNTADACVHLTCGFVFISVPGVFFLFLKSHSRSCSSGLKESGRKEQVQAAFEKMRKHRVSDSRRFWQCCLYEEPGGRGRYKKLTGYLIKMSEIYANGNFPDDSLFLKVIN | not failed
SLSTVELSGTVVKQGYLAKQGHKRKNWKVRRFVLRKDPAFLHYYDPSKEENRPVGGFSLRGSLVSALEDNGVPTGVKGNVQGNLFKVITKDDTHYYIQASSKAERAEWIEAIKKLT | not failed
SLYGNSSGGTLLTTTKEGQGKDSVELNYSGGSHDKNRTGLILQGGAKQSNQPSYVISSSYFDTDGYREHSAAHKILNNAKLTWNLDDGSKINWITNYVKINADDPQGLTRDQWKANPKQQVPFLQQFDVRKDIEQTQTGVTWSKPINDQNELYMMGYLGNRKVTQYQSIPKSTQDASKNQAGGVIDFERNYYGADLRWTGKELLPNTTFSVGVALDAMDEDRKGYENYVTVNNQPSYGVKGNLRRDEDNTLWNIDPYLQASWQFLPTWRLDTGVRYSNVHYKSDDHFIVIGNTAKDSNPDDSGKTDYSKVLPSAALSWQIVPELLAYVSYAKGFETPTFTEMAYNPDPDLSGFNFGLKASTSDTYEAGLKSQNRLGDFTLAAFQTKTKDDIVSAGSINGRATFRNADRTLREGIEFTWNKQLWRDLVLNTSYAYLNATFDADVPATASVAAITSGNQIPGVAKNQAYASLAWKPQTGFHGGIDAQYNDKIYVDDKNSDAAPSYTVVAAYAGYTWQMQDWKLNVYSRVDNMFDKSYVGSVIVNDGNSRFFEPADGRNWSAGLRVSKQF | failed
SNGQADRCDRTAYVSGLQPTISDIELFEVFNRVAHVEKVIVRNGAARHALIVFKTVQGLYQVLVNFQGTTLHGRQLHIRPLRESSHANSEAISTMFEKVKHQGNSGNSSYRQEHSFPEYRNQNPQASSYLPPNPRGHRNSTGCFNGGGGGYGRRRSAGGYNQYNQNKYPNETYPGMTLFDNHPVQQYSGFNPIDFRFDDYVEGAKRFDNLANLIRSSTPTDPFANYQKPCESTSTSRSRTNSAKDQKHGPPTWKMELQIKKDDHHHAGGGAATTGQKLSPQQFLAQIAQRQQSEQNADEVAKKKRPNLSVINPSLFYEQYPRTSSPVVYASKSKPSGHYDDKIASPHDPAVLAYSRLRVPQSAFDSLSPIDTDNCSFITKHLGPTTGVKRDLTNDELSDMIVSTGNLRINPTNIDHHDEPAPWSPLKRLRAESGSLSTAQVASPEFSPIKPKTMEFHETEDDVFETGPPPTYLSEGNENAEKKCVEQPKINYDDINNSRLPSNSHSAAPNSEKKHFVFPEYPMCRHSSVPSIAHLVGDLSDFCPHATADEKMLLDEASSIIENTTPAVSTAPAAAPGATMLQI | not failed
SQKSLKRGQELNNQYETKAKRLKIDPCLVVDSPFNHGFTAQEILKGAKNNGEISFLIRFWHLDQPQVVPSGIAYVEIPQMVLKFYENHCNFHDYLNNYIS | failed
SQLINLPMDQILYLSTSDIKHHVHLQTIHTLMDIRANLADFKKIHKKLYPCHRSYIVNTDMIISVNKTNYEATLINGQVLPVSRMKIGKIAQIVEERGR | not failed
SQNSKTPFPEYFWSWFETYKESSVSERTKLTYKNTFNVLKKHLGGIPIEEMDRRLYRKFIAEFGKDHAKSTVSKFNSLYHACVKDAMYDGDMTKDFIAGTDIVYNRKKTRK | failed
SQPDHGRLSPPEAPDRPTISTASETSVYVTWIPRGNGGFPIQSFRVEYKKLKKVGDWILATSAIPPSRLSVEITGLEKGISYKFRVRALNMLGESEPSAPSRPYVVSG | not failed
SRGMTPGSRLIDYQLIDSTEELAAILGCGHPSSIHKITRVRLANDIPMAIESSHIPFELAGELNESHFQSSIYDHIERYNSIPISRAKQELEPSAATTEEANILGIQKGAPVLLIKRTTYLQNGTAFEHAKSVYRGDRYTFVHYMDRLS | failed
SRGPEPGPQPTMEGDVLDTLEALGYKGPLLEEQALTKAAEGGLSSPEFSELCIWLGSQIKSLCNLEESITSAGRDDLESFQLEISGFLKEMACPYSVLISGDIKDRLKKKEDCLKLLLFLSTELQASQILQNKKHKNSQLDKNSEVYQEVQAMFDTLGIPKSTTSDIPHMLNQVESKVKDILSKVQKNHVGKPLLKMDLNSEQAEQLERINDALSCEYECRRRMLMKRLDVTVQSFGWSDRAKVKTDDIARIYQPKRYALSPKTTITMAHLLAAREDLSKIIRTSSGTSREKTACAINKVGVSFSTVENELMISYLMFLQILVYFSFMSW | not failed
SRPRLSQLSVTDVTTSSLRLNWEAPPGAFDSFLLRFGVPSPSTLEPHPRPLLQRELMVPGTRHSAVLRDLRSGTLYSLTLYGLRGPHKADSIQGTARTL | not failed
SSCGNDESDPDSTVTIAMATVEKQPQYDAPYLVLDNGEKLWVVQHIVPYRDLKAGERIFGNYSFLEAGESGFAYNIRLNDYTLVPVQKIIGLNPDNMDSIGNMKVQIKDMWPSDDYLNVRFMLNFPSPQKPILNLVVNEMIPWTKDGYAHLELRYNNNGSQGRLVPGMVSFKLDDYSPENSELKGIKVLVNPVDGEEKTYIFSYPLTGEDVPGFNPLDLAELK | not failed
SSEANSNSEFQTFIEQENQKAAIQAAISKLTETCWDKCVGKPGSKLDRAESECIANCAERFLDSSSFIMQRLMKKQ | not failed
SSFQSTTGHCVHMRGLPYRATENDIYNFFSPLNPMRVHIEIGPDGRVTGEADVEFATHEDAVAAMAKDKANMQHRYVELFLNSTAGTSG | not failed
SSPQHLLVGGSGWNKIAIINKDTKEIVWEYPLEKGWECNSVAATKAGEILFSYSKGAKMITRDGRELWNIAAPAGCEMQTARILPDGNALVAWCGHPSTILEVNMKGEVLSKTEFETGIERPHAQFRQINKNKKGNYLVPLFATSEVREIAPNGQLLNSVKLSGTPFSSAFLDNGDCLVACGDAHCFVQLNLESNRIVRRVNANDIEGVQLFFVAQLFPLQNGGLYICNWQGHDREAGKGKHPQLVEIDSEGKVVWQLNDKVKFGMISTICPIRE | not failed
SSPVPFGPEGRLEDKLHKPKATQTEVKPSVRFNLRTSKDPEHEGCYLSVGHSQPLEDCSFNMTAKTFFIIHGWTMSGIFENWLHKLVSALHTREKDANVVVVDWLPLAHQLYTDAVNNTRVVGHSIARMLDWLQEKDDFSLGNVHLIGYSLGAHVAGYAGNFVKGTVGRITGLDPAGPMFEGADIHKRLSPDDADFVDVLHTYTRSFGLSIGIQMPVGHIDIYPNGGDFQPGCGLNDVLGSIAYGTITEVVKCEHERAVHLFVDSLVNQDKPSFAFQCTDSNRFKKGICLSCRKNRCNSIGYNAKKMRNKRNSKMYLKTRAGMPFRVYHYQMKIHVFSYKNMGEIEPTFYVTLYGTNADSQTLPLEIVERIEQNATNTFLVYTEEDLGDLLKIQLTWEGASQSWYNLWKEFRSYLSQPRNPGRELNIRRIRVKSGETQRKLTFCTEDPENTSISPGQELWFRKCRDGWRMKNETSPTVELP | not failed
SSQWHHPRSGWGRRRDFSGRSSAKKKGGNHIPERWKDYLPVGQRMPGTRFIAFKVPLQKSFEKKLAPEECFSPLDLFNKIREQNEELGLIIDLTYTQRYYKPEDLPETVPYLKIFTVGHQVPDDETIFKFKHAVNGFLKENKDNDKLIGVHCTHGLNRTGYLICIYLIDVEGVRPDDAIELFNRCRGHCLERQNYIEDLQNGPIRKNWNSSVPRSSDFEDSAHLMQPVHNKPVKQGPRYNLHQIQGHSAPRHFHTQTQSLQQSVRKFSENPHVYQRHHLPPPGPPGEDYSHRRYSWNVKPNASRAAQDRRRWYPYNYSRLSYPACWEWTQ | not failed
SSSTEVKDNVLTEEEKAEGYTLLFNGKDFTGWKMFNGGDVKGWQVEDGVIVGYGNGGDVIADTTIKVSTDIVTVKNYHNFQIKWDWKIGAQGNSGFLYHVQEGPKYKAPFETGPEYQLIDDDNYPWVSETGKEGLEDWQKTGCNYAMYVPETKQVNPPGEWNSSMVLYKDGYVEHWLNGEKLFSFQEGSEDWKMRRYSGKWEAFPDYGISTTGKLCFQDHGSKVYFKNVKIKDLD | not failed
SSTHGSRFPLCGGRRDHKGLTHIFNPPPKRFESILEGLFGPALLKDLSLFKDCEPESISDWTFDENCLFCCLRRDKVKGHLVGLDEPASGAGQEALLKQEQAKIIRFERQAEEFLNAVFYRKDSPWVSDPNIPLVAREIMQRMIQQFAAEYTSKNSSTQDPSQPNSTKNQSLPKASPVTTSPTAATTQNPVLSKLLMADQDSPLDLTVRKSQSEPSEQDGVLDLSTKKSPCAGSTSLSHSPGCSSTQGNGRPGRPSQYRPDGLRSGDGVPPRSLQDGTREGFGHSTSLKVPLARSLQISEELLSRNQLSTAASLGPSGLQNHGQHLILSREASWAKPHYEFNLSRMKFRGNGALSNISDLPFLAENSAFPKMALQAKQDGKKDVSHSSPVDLKIPQVRGMDLSWESRTGDQYSYSSLVMGSQTESALSKKLRAILPKQSRKSMLDAGPDSWGSDAEQSTSGQPYPTSDQEGDPGSKQPRKKRGRYRQYNSEILEEAISVVMSGKMSVSKAQSIYGIPHSTLEYKVKERLGTLKNPPKKKMKLMRSEGPDVSVKIELDPQGEAAQSANESKNE | not failed
SSVVKSIELVLPEDRIYLAGSSIKGQVILTLNSTLVDPIVKVELVGRGYVEWSEEAGASCDYSRNVICNNKADYVHKTKTFPVEDNWLSAGSHTFDFHFNLPPRLPSTFTSKFGHVFYFVQASCMGREHILAKKRMYLLVQGTSTFHKETPFQNPLFVEAEEKVSYNCCRQGTVCLQIQMERNTFTPGEKVVFTTEINNQTSKCIKTVVFALYAHIQYEGFTPSAERRSRLDSSELLRQEANTPVTRFNTTKVVSTFNLPLLLSVSSSTQDGEIMHTRYELVTTVHLPWSLTSLKAKVPIIITSASVDSAICQLSEDGVLPVNPDHQN | not failed
STERRRDELSEEINNLREKVMKQSEENNNLQSQVQKLTEENTTLREQVEPTPEDEDDDIELRGAAAAAAPPPPIEEECPEDLPEKFDGNPDMLAPFMAQCQIFMEKSTRDFSVDRVRVCFVTSMMTGRAARWASAKLERSHYLMHNYPAFMMEMKHVFEDPQRREVAKRKIRRLRQGMGSVIDYSNAFQMIAQDLDWNEPALIDQYHEGLSDHIQEELSHLEVAKSLSALIGQCIHIERRLARAAAARKPRSPPRALVLPHIASHHQVDPTEPVGGARMRLTQEEKERRRKLNLCLYCGTGGHYADNCPAKASKSSPAGNSPAPL | not failed
